Experimental data reported in paper PMC7455749, “A leap in quantum efficiency through light harvesting in photoreceptor UVR8” (Nature Communications, 2020).

B1: UVR8 mutant 6Wd + 3Wp (all four tryptophans of the 4Wc pyramid center changed to phenylalanine, on the W400F template) (receptor, Arabidopsis thaliana, UniProt Q9FN03 1-440, looked up)
chain: MAEDMAADEVTAPPRKVLIISAGASHSVALLSGDIVCSWGRGEDGQLGHGDAEDRPSPTQLSALDGHQIVSVTCGADHTVAYSQSGMEVYSWGFGDFGRLGHGNSSDLFTPLPIKALHGIRIKQIACGDSHCLAVTMEGEVQSWGRNQNGQLGLGDTEDSLVPQKIQAFEGIRIKMVAAGAEHTAAVTEDGDLYGWGWGRYGNLGLGDRTDRLVPERVTSTGGEKMSMVACGFRHTISVSYSGALYTYGWSKYGQLGHGDLEDHLIPHKLEALSNSFISQISGGFRHTMALTSDGKLYGWGWNKFGQVGVGNNLDQCSPVQVRFPDDQKVVQVSCGFRHTLAVTERNNVFAWGRGTNGQLGIGESVDRNFPKIIEALSVDGASGQHIESSNIDPSSGKSFVSPAERYAVVPDETGLTDGSSKGNGGDISVPQTDVKRVRI
notes: UVR8, Arabidopsis thaliana; W400F template
B2: Arabidopsis thaliana UVR8 (UV … LOCUS 8) W400F, redefined as wild type (WT) (receptor, UniProt Q9FN03 1-440, looked up)
chain: MAEDMAADEVTAPPRKVLIISAGASHSVALLSGDIVCSWGRGEDGQLGHGDAEDRPSPTQLSALDGHQIVSVTCGADHTVAYSQSGMEVYSWGWGDFGRLGHGNSSDLFTPLPIKALHGIRIKQIACGDSHCLAVTMEGEVQSWGRNQNGQLGLGDTEDSLVPQKIQAFEGIRIKMVAAGAEHTAAVTEDGDLYGWGWGRYGNLGLGDRTDRLVPERVTSTGGEKMSMVACGWRHTISVSYSGALYTYGWSKYGQLGHGDLEDHLIPHKLEALSNSFISQISGGWRHTMALTSDGKLYGWGWNKFGQVGVGNNLDQCSPVQVRFPDDQKVVQVSCGWRHTLAVTERNNVFAWGRGTNGQLGIGESVDRNFPKIIEALSVDGASGQHIESSNIDPSSGKSFVSPAERYAVVPDETGLTDGSSKGNGGDISVPQTDVKRVRI
notes: UVR8, Arabidopsis thaliana; the construct holds residue 400 (W400F); also called UVR8 WT

Columns and labels:
[1] = biological target: the molecule itself; assay: not stated; oligomeric state of the UVR8 mutants without UV-B; method not given; UVR8 lysis buffer (150 mM NaCl, 25 mM Tris, pH 8.0), room temperature
[2] = biological target: the molecule itself; assay: SEC; Superdex200 size column run after the sub-nanosecond TCSPC measurements (290 nm pulsed LED, 10 uM samples); dimer to monomers

| Protein | stoichiometry N [1] | binding result [2] |
| --- | --- | --- |
| B1 | 2 | – |
| B2 | – | binds |
